From publication PMC4341510, “Jasmonate-responsive expression of paclitaxel biosynthesis genes in Taxus cuspidata cultured cells is negatively regulated by the bHLH transcription factors TcJAMYC1, TcJAMYC2, and TcJAMYC4”

How the values were obtained:
TcJAMYC1 [1] = target: T1, TcJAMYC1 (Taxus cuspidata (cell culture line P991), UniProt B9VVN9 1-660); test: competition EMSA; vs CATGTG probe; competes better than CATGTG self; 20 mM HEPES-KOH pH 7.9, 20% glycerol, 0.2 mM EDTA, 100 mM KCl, 0.5 mM PMSF, 1 mM DTT, 15 mM MgCl2, 5 ug BSA; 175 fmol probe in 20 ul; gel 7% PAGE, 0.5X TBE, 4 C; binding temperature not stated; conditions: protein: recombinant; tags: N-terminal 6xHis (pDEST17); chain copies: 2; label: 32P by Klenow fill-in when probe; 5' overhang 4 nt at both ends; labeled probe filled in
T1 sequence (B9VVN9 entry or part of it): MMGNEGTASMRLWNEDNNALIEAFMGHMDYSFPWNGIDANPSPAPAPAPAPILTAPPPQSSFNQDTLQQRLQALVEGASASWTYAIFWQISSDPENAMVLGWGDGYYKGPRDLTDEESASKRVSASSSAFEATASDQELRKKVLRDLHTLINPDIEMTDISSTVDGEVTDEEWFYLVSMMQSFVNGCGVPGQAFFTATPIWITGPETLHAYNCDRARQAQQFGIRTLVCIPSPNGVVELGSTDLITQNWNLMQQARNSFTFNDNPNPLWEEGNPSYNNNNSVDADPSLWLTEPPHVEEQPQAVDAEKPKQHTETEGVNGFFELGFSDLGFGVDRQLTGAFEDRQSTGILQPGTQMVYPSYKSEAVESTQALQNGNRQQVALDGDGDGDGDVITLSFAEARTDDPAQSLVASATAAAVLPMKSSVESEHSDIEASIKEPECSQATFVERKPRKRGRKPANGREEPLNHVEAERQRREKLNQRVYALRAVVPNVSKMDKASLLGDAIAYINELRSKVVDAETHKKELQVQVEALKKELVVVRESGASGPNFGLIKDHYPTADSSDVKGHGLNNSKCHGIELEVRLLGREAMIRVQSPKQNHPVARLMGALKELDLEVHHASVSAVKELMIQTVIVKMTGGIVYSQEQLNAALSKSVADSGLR

GUS (beta-glucuronidase) = GUS (beta-glucuronidase) (UniProt P05804 1-603); test: EMSA; 25-75 ng protein; 20 mM HEPES-KOH pH 7.9, 20% glycerol, 0.2 mM EDTA, 100 mM KCl, 0.5 mM PMSF, 1 mM DTT, 15 mM MgCl2, 5 ug BSA; 175 fmol probe in 20 ul; gel 7% PAGE, 0.5X TBE, 4 C; binding temperature not stated; conditions: protein: recombinant; label: 32P by Klenow fill-in when probe; 5' overhang 4 nt at both ends; labeled probe filled in
GUS (beta-glucuronidase), sequence (P05804 whole entry): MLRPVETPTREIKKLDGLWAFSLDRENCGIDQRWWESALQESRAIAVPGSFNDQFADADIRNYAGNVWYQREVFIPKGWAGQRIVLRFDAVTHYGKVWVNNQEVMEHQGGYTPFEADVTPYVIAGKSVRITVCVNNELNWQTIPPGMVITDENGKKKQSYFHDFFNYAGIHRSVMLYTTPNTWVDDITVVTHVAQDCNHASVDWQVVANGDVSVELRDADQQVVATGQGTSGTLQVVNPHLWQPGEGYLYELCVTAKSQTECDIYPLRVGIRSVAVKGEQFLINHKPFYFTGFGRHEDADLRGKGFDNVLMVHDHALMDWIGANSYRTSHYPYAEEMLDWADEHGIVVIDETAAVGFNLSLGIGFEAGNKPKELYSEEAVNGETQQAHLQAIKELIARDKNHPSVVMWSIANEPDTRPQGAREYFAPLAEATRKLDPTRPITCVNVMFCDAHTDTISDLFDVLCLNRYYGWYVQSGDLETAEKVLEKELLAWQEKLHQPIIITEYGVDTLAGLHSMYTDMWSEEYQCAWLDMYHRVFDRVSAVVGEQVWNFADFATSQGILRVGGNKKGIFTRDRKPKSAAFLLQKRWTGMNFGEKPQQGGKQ

TcJAMYC1 [2] = target: T1, TcJAMYC1; test: EMSA; 25-100 ng protein; 20 mM HEPES-KOH pH 7.9, 20% glycerol, 0.2 mM EDTA, 100 mM KCl, 0.5 mM PMSF, 1 mM DTT, 15 mM MgCl2, 5 ug BSA; 175 fmol probe in 20 ul; gel 7% PAGE, 0.5X TBE, 4 C; binding temperature not stated; conditions: protein: recombinant; tags: N-terminal 6xHis (pDEST17); chain copies: 2; label: 32P by Klenow fill-in when probe; 5' overhang 4 nt at both ends; labeled probe filled in
TcJAMYC1 [3] = target: T1, TcJAMYC1; test: EMSA; 25-75 ng protein; 20 mM HEPES-KOH pH 7.9, 20% glycerol, 0.2 mM EDTA, 100 mM KCl, 0.5 mM PMSF, 1 mM DTT, 15 mM MgCl2, 5 ug BSA; 175 fmol probe in 20 ul; gel 7% PAGE, 0.5X TBE, 4 C; binding temperature not stated; conditions: protein: recombinant; tags: N-terminal 6xHis (pDEST17); chain copies: 2; label: 32P by Klenow fill-in when probe; 5' overhang 4 nt at both ends; labeled probe filled in

B1: CACGTG E-box (dsDNA)
DNA 1: TAGCATCGATCGCACGTGATCGATCG
DNA 2: CGTACGATCGATCACGTGCGATCGAT
TcJAMYC1 [1]
  binding result: binds

B2: CATGTG E-box (dsDNA)
DNA 1: TAGCGCATCGATCATGTGATCGATCG
DNA 2: CGTACGATCGATCACATGATCGATGC
GUS (beta-glucuronidase)
  binding result: no binding
TcJAMYC1 [2]
  binding result: binds

B3: Mutated (no E-box) (dsDNA)
DNA 1: TAGCGCATCGATAAGCCTATCGATCG
DNA 2: CGTACGATCGATAGGCTTATCGATGC
TcJAMYC1 [3]
  binding result: no binding
